These results are taken from patent US7201905B2, “Bi-functional cancer treatment agents” (Greenville Hospital System, priority 2001, dated 2007).

One data set concerns L-1210 tumor cells. The settings on record: inhibiting cell growth and differentiation, read-out: IC50, cytotoxic effects against L-1210 tumor cells; cited from earlier work.
In data set [1] the test system is T-47D human breast cancer cells. The data set is described as follows: T-47D human breast cancer cell proliferation assay (FIG. 4). The class given is cell-based. From the text: The x-axis represents the hPRL-G129R concentration either in the absence (open bars) or presence of 4-OH-Tamoxifen. Each data point represents a mean of at least three independent experiments with triplicate wells.

For data set [2] the test system is unchanged. The data set is described as follows: T-47D co-culture method with L cells (FIG. 3). The following applies: co-cultured with L-PRL or L-hPRL-G129R cells, dose-response. In kind it is cell-based. The source says:
The x-axis represents the co-cultured L cell (control, L-PRL or L-hPRL-G129R cell numbers. Each data point represents a mean of at least three independent experiments with triplicate wells.

The subject of data set [3] is STAT5 phosphorylation in T-47D human breast cancer cells. The experiment in a line: STAT 5 phosphorylation/immunoprecipitation assay. The class given is cell-based. The following applies: T-47D cells, 30 min incubation, anti-phosphotyrosine blot. Here is the method: T-47D cells are grown in RPMI-1640 medium containing 10% Charcoal Stripped Fetal Bovine Serum (CSFBS; growth medium). For each experiment, cells are passed into 6 well culture plates in growth medium till reach 90% confluence. On the day of the experiment, cells are depleted in serum free media for one hour and incubated in hPRL, hPRL-G129R or combination of two for 30 min. After treatment, T47-D cells are washed once with ice cold PBS and collected by gentle scraping in 1 ml ice cold lysis buffer [20 mM Tris-Cl (pH 7.4), 100 mM NaCl, 2 mM EDTA, 1% NP-40, 1 mM phenylmethylsulfonyl fluoride, 10 ug/ml aprotinin, 10 ug/ml leupeptin]. The lysis mixture is then passed through a 22 gauge needle several times avoiding air bubbles and spin at maximum speed for 20 minutes. The supernatant is then transferred to a new microcentrifuge tube. Five μg of STAT5 monoclonal antibody is then added to 100 microliters (200–500 micrograms total protein) of cell lysate along with 400 microliters of ddH20 and 500 microliters of 2×IP buffer [1% Triton X-100, 150 mM NaCl, 10 mM Tris pH 7.4, 1 mM EDTA, 1 mM EGTA, 0.2 mM sodium vanadate, 0.2 mM PMSF, 0.5% NP-40] to each reaction. After overnight incubation at 4° C. and gentle rotation, 50 microliters of prewashed (1×IP buffer) protein A agarose beads are added to each IP reaction and continue the Incubation for another 2 hours at 4C. […]

Usually IC50 stands for the concentration that inhibits the measured activity by half. On to `COc1ccc2c(c[n+](C)c3c4cc5c(cc4ccc23)OCO5)c1OC` [chelerythrine, 1,2-dimethoxy-12-methyl[1,3]benzodioxolo[5,6-c]phenanthridinium], for which the IC50 in the data set on L-1210 tumor cells was 53 nM.

B1: hPRL-G129R: human prolactin with substitution of Gly to Arg at position 129 (SEQ ID NO: 34), hPRLR antagonist (protein)
chain: LPICPGGAARCQVTLRDLFDRAVVLSHYIHNLSSEMFSEFDKRYTHGRGFITKAINSCHTSSLATPEDKEQAQQMNQKDFLSLIVSILRSWNEPLYHLVTEVRGMQEAPEAILSKAVEIEEQTKRLLEGMELIVSQVHPETKENEIYPVWSGLPSLQMADEESRLSAYYNLLHCLRRDSHKIDNYLKLLKCRIIHNNNC
With B1, in data set [1] (hPRL-G129R alone, dose-response), the “effect on T-47D cell proliferation” value was “dose-response inhibitory effects”. The “effect on T-47D cell proliferation in combination” value in data set [1] (in presence of 4-OH-Tamoxifen) is “additive effects with 4-OH-Tamoxifen”. Also, in data set [2], the “effect on T-47D cells, co-culture method” value was “dose-response inhibitory effects”. In addition, the “block of signal transduction (STAT5 phosphorylation) induced by hPRL” value in data set [3] is given as “able to block the signal transduction induced by hPRL”.

B2: hPRL: human prolactin (protein)
chain: LPICPGGAARCQVTLRDLFDRAVVLSHYIHNLSSEMFSEFDKRYTHGRGFITKAINSCHTSSLATPEDKEQAQQMNQKDFLSLIVSILRSWNEPLYHLVTEVRGMQEAPEAILSKAVEIEEQTKRLLEGMELIVSQVHPETKENEIYPVWSGLPSLQMADEESRLSAYYNLLHCLRRDSHKIDNYLKLLKCRIIHNNNC
With B2, the “effect on T-47D cells, co-culture method” value in data set [2] is “stimulatory effects”.
